Values belong to the binder of their own block, whether it stands above or below them.
Legend:
[1] = target: KRAS G12V peptide on HLA-A*11:01 (human); assay: mean peptide concentration for 50% NFAT activation; J^ASP90 reporter cells 1:1 with HLA-SCD K562 pulsed with titrated peptide (10 μM–1 pM), 16–20 h; full-length, on cells
[2] = target: T1, KRAS G12R peptide on HLA-B*07:02 (human); assay: as above
T1 peptide: GARGVGKSAL

EC50 of peptide [1]: 0.15 nM
B1: TCRA11V (TCR)
alpha TRAV12-1 TRAJ8 CDR3: CAVNPPDTGFQKLVF
beta TRBV28 TRBJ2-7 CDR3: CASSLSFRQGLREQYF

EC50 of peptide [2]: 3.38 nM
B2: TCRB7R (TCR)
alpha TRAV4 TRAJ41 CDR3: CLVGDFNSNSGYALNF
beta TRBV7-2 TRBJ1-2 CDR3: CASKVYGYTF

Source: article PMC8285372 (2021)
